B1: BBSome complex member BBS5 (Homo sapiens), Q8N3I7 (parent)
chain: MSVLDALWEDRDVRFDLSAQQMKTRPGEVLIDCLDSIEDTKGNNGDRGRLLVTNLRILWHSLALSRVNVSVGYNCILNITTRTANSKLRGQTEALYILTKCNSTRFEFIFTNLVPGSPRLFTSVMAVHRAYETSKMYRDFKLRSALIQNKQLRLLPQEHVYDKINGVWNLSSDQGNLGTFFITNVRIVWHANMNDSFNVSIPYLQIRSIKIRDSKFGLALVIESSQQSGGYVLGFKIDPVEKLQESVKEINSLHKVYSASPIFGVDYEMEEKPQPLEALTVEQIQDDVEIDSDGHTDAFVAYFADGNKQQDREPVFSEELGLAIEKLKDGFTLQGLWEVMS
partner: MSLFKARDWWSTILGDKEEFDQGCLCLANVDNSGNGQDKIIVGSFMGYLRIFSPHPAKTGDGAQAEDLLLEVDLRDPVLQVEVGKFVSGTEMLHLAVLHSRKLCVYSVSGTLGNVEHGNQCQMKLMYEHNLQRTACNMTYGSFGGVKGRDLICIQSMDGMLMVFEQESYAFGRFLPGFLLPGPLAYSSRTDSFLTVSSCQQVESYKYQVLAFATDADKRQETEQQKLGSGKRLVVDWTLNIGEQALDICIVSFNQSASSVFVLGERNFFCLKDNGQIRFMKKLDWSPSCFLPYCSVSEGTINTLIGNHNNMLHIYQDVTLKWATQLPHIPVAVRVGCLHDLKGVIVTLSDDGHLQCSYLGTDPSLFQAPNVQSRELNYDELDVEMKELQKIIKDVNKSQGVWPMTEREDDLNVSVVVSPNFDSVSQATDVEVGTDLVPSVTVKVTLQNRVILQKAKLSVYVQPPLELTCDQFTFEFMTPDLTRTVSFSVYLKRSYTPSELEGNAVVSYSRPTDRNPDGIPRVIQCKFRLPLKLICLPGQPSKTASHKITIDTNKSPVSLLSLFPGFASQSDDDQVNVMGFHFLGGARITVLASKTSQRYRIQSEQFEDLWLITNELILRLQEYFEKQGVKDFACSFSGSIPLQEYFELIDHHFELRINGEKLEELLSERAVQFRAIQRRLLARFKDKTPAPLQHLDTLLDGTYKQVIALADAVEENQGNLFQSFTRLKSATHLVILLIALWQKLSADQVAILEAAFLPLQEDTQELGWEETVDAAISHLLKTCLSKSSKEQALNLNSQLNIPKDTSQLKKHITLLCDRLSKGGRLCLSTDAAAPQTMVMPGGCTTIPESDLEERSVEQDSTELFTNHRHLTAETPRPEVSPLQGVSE

Variants of: B1
Conditions: with pthb1_human BBS9, Q3SYG4

Variant | effect of a mutation on the interaction
ASVLDALWEDRDVRFDLSAQQMKTRPGEVLIDCLDSIEDTKGNNGDRGRLLVTNLRILWHSLALSRVNVSVGYNCILNITTRTANSKLRGQTEALYILTKCNSTRFEFIFTNLVPGSPRLFTSVMAVHRAYETSKMYRDFKLRSALIQNKQLRLLPQEHVYDKINGVWNLSSDQGNLGTFFITNVRIVWHANMNDSFNVSIPYLQIRSIKIRDSKFGLALVIESSQQSGGYVLGFKIDPVEKLQESVKEINSLHKVYSASPIFGVDYEMEEKPQPLEALTVEQIQDDVEIDSDGHTDAFVAYFADGNKQQDREPVFSEELGLAIEKLKDGFTLQGLWEVMS [M1A] | with no effect
MSVLDALWEDRDVRFDLSAQQMKTRPGEVLIDCLDSIEDTKGNNGDRGRLLVTNLRILWHSLALSRVNVSVGYNCILNITTRTANSKLRGQTEALYILTKCNSTRFEFIFTNLVPGSPRLFTSVMAVHRAYETSKMYRDFKLRSALIQNKQLRLLPQEHVYDKINGVWNLSSDQGNLGTFFITNVRIVWHANMNDSFNVSIPYLQIRSIKIRDSKFGLALVIESSQQSGGYVLGFKIDPVEKLQESVKEANSLHKVYSASPIFGVDYEMEEKPQPLEALTVEQIQDDVEIDSDGHTDAFVAYFADGNKQQDREPVFSEELGLAIEKLKDGFTLQGLWEVMS [I250A] | with no effect
MSVLDALWEDRDVRFDLSAQQMKTRPGEVLIDCLDSIEDTKGNNGDRGRLLVTNLRILWHSLALSRVNVSVGYNCILNITTRTANSKLRGQTEALYILTKCNSTRFEFIFTNLVPGSPRLFTSVMAVHRAYETSKMYRDFKLRSALIQNKQLRLLPQEHVYDKINGVWNLSSDQGNLGTFFITNVRIVWHANMNDSFNVSIPYLQIRSIKIRDSKFGLALVIESSQQSGGYVLGFKIAPVEKLQESVKEINSLHKVYSASPIFGVDYEMEEKPQPLEALTVEQIQDDVEIDSDGHTDAFVAYFADGNKQQDREPVFSEELGLAIEKLKDGFTLQGLWEVMS [D238A] | with no effect
MSVLDALWEDRDVRFDLSAQQMKTRPGEVLIDCLDSIEDTKGNNGDRGRLLVTNLRILWHSLALSRVNVSVGYNCILNITTRTANSKLRGQTEALYILTKCNSTRFEFIFTNLVPGSPRLFTSVMAVHRAYETSKMYRDFKLRSALIQNKQLRLLPQEHVYDKINGVWNLSSDQGNLGTFFITNVRIVWHANKNDSFNVSIPYLQIRSIKIRDSKFGLALVIESSQQSGGYVLGFKIDPVEKLQESVKEINSLHKVYSASPIFGVDYEMEEKPQPLEALTVEQIQDDVEIDSDGHTDAFVAYFADGNKQQDREPVFSEELGLAIEKLKDGFTLQGLWEVMS [M193K] | with no effect
MSVLDALWEDRDVRFDLSAQQMKTRPGEVLIDCLDSIEDTKGNNGDRGRLLVTNLRILWHSLALSRVNVSVGYNCILNITTRTANSKLRGQTEALYILTKCNSTRFEFIFTNLVPGSPRLFTSVMAVHRAYETSKMYRDFKLRSALIQNKQLRLLPQEHVYDKINGVWNLSSDQGNLGTFFITNVRIVWHANMNDSFNVSIPYLQIRSIKIRDSKFGLALVIESSQQSGGYVLGFKIDPVEKLQESVKEINSLHKVYSASPIFGVDYEMEEKPQPLEALTVEQIQDDVEIDSDGHTDAFEAYFADGNKQQDREPVFSEELGLAIEKLKDGFTLQGLWEVMS [V300E] | with no effect
MSVLDALWEDRDVRFDLSAQQMKTRPGEVLIDCLDSIEDTKGNNGDRGRLLVTNLRILWHSLALSRVNVSVGYNCILNITTRTANSKLRGQTEALYILTKCNSTRFEFIFTNLVPGSPRLFTSVMAVHRAYETSKMYRDFKLRSALIQNKQLRLLPQEHVYDKINGVWNLSSDQGNLGTFFITNVRIVWHANMNDSFNVSIPYLQIRSIKIRDSKFGLALVIESSQQSGGYVLGFKIDPVEKLQESVKEINSLHKVYSASPIFGVDYEMEEKPQPLEALTVEQIQDDVEIDSDGHTDAFAAYFADGNKQQDREPVFSEELGLAIEKLKDGFTLQGLWEVMS [V300A] | with no effect
MSVLDALWEDRDVRFDLSAQQMKTRPGEVLIDCLDSIEDTKGNNGDRGRLLVTNLRILWHSLALSRVNVSVGYNCILNITTRTANSKLRGQTEALYILTKCNSTRFEFIFTNLVPGSPRLFTSVMAVHRAYETSKMYRDFKLRSALIQNKQLRLLPQEHAYDKINGVWNLSSDQGNLGTFFITNVRIVWHANMNDSFNVSIPYLQIRSIKIRDSKFGLALVIESSQQSGGYVLGFKIDPVEKLQESVKEINSLHKVYSASPIFGVDYEMEEKPQPLEALTVEQIQDDVEIDSDGHTDAFVAYFADGNKQQDREPVFSEELGLAIEKLKDGFTLQGLWEVMS [V160A] | with no effect
MSVLDALWEDRDVRFDLSAQQMKTRPGEVLIDCLDSIEDTKGNNGDRGRLLVTNLRILWHSLALSRVNKSVGYNCILNITTRTANSKLRGQTEALYILTKCNSTRFEFIFTNLVPGSPRLFTSVMAVHRAYETSKMYRDFKLRSALIQNKQLRLLPQEHVYDKINGVWNLSSDQGNLGTFFITNVRIVWHANMNDSFNVSIPYLQIRSIKIRDSKFGLALVIESSQQSGGYVLGFKIDPVEKLQESVKEINSLHKVYSASPIFGVDYEMEEKPQPLEALTVEQIQDDVEIDSDGHTDAFVAYFADGNKQQDREPVFSEELGLAIEKLKDGFTLQGLWEVMS [V69K] | with no effect
MSVLDALWEDRDVRFDLSAQQMKTRPGEVLIDCLDSIEDTKGNNGDRGRLLVTNLRILAHSLALSRVNVSVGYNCILNITTRTANSKLRGQTEALYILTKCNSTRFEFIFTNLVPGSPRLFTSVMAVHRAYETSKMYRDFKLRSALIQNKQLRLLPQEHVYDKINGVWNLSSDQGNLGTFFITNVRIVWHANMNDSFNVSIPYLQIRSIKIRDSKFGLALVIESSQQSGGYVLGFKIDPVEKLQESVKEINSLHKVYSASPIFGVDYEMEEKPQPLEALTVEQIQDDVEIDSDGHTDAFVAYFADGNKQQDREPVFSEELGLAIEKLKDGFTLQGLWEVMS [W59A] | with no effect
MSVLDALWEDRDVRFDLSAQQMKTRPGEVLIDCLDSIEDTKGNNGDRGRLLVTNLRILWHSLALSRVNVSVGYNCILNITTRTANSKLRGQTEALYILTKCNSTRFEFIFTNLVPGSPRLFTSVMAVHRAYETSKMYRDFKLRSALIQNKQLRLLPQEHVYDKINGVWNLSSDQGNLGTFFITNVRIVWHANMNDSFNVSIPYLQIRSIKIRDSKFGLALVIESSQQSGGYVLGFKIDPVEKLQESVKEINSLHKVYSASPIFGVDYEMEEKPQPLEALTVEQIQDDVEIDSDGHTDAFVAAFADGNKQQDREPVFSEELGLAIEKLKDGFTLQGLWEVMS [Y302A] | with no effect
MSVLDALWEDRDVRFDLSAQQMKTRPGEVLIDCLDSIEDTKGNNGDRGRLLVTNLRILWHSLALSRVNVSVGYNCILNITTRTANSKLRGQTEALYILTKCNSTRFEFIFTNLVPGSPRLFTSVMAVHRAYETSKMYRDFKLRSALIQNKQLRLKPQEHVYDKINGVWNLSSDQGNLGTFFITNVRIVWHANMNDSFNVSIPYLQIRSIKIRDSKFGLALVIESSQQSGGYVLGFKIDPVEKLQESVKEINSLHKVYSASPIFGVDYEMEEKPQPLEALTVEQIQDDVEIDSDGHTDAFVAYFADGNKQQDREPVFSEELGLAIEKLKDGFTLQGLWEVMS [L155K] | with no effect
MSVLDALWEDRDVRFDLSAQQMKTRPGEVLIDCLDSIEDTKGNNGDRGRLLVTNLRILWHSLALSRVNVSVGYNCILNITTRTANSKLRGQTEALYILTKCNSTRFEFIFTNLVPGSPRLFTSVMAVHRAYETSKMYRDFKLRSALIQNKQLRLLPQEHVYDKINGVWNLSSDQGNLGTFFITNVRIVWHANMNDSFNVSIPYLQIRSIKIRDAKFGLALVIESSQQSGGYVLGFKIDPVEKLQESVKEINSLHKVYSASPIFGVDYEMEEKPQPLEALTVEQIQDDVEIDSDGHTDAFVAYFADGNKQQDREPVFSEELGLAIEKLKDGFTLQGLWEVMS [S214A] | with no effect
MSVLDALWEDRDVRFDLSAQQMKTRPGEVLIDCLDSIEDTKGNNGDRGRLLVTNLRILWHSLALSRVNVSVGYNCILNITTRTANSKLRGQTEALYILTKCNSTRFEFIFTNLVPGSPRLFTSVMAVHRAYETSKMYRDFKLRSALIQNKQLRLLPQEHVYDKINGVWNLSSDQGNLGTFFITNVRIVWHANMNDSFNVSIPYLQIRSIKIRDSKFGLALVIESSQQSGGYVLGFKIDPVEKLQESVKEINSLHKVYSASPIFGVDYEMEEKPQPLEALTVEQIQDDVEIDSDGHTDAFVAYAADGNKQQDREPVFSEELGLAIEKLKDGFTLQGLWEVMS [F303A] | disrupting interaction strength
MSVLDALWEDRDVRFDLSAQQMKTRPGEVLIDCLDSIEDTKGNNGDRGRLLVTNLRILWHSLALSRVNVSVGYNCILNITTRTANSKLRGQTEALYILTKCNSTRFEFIFTNLVPGSPRLFTSVMAVHRAYETSKMYRDFELRSALIQNKQLRLLPQEHVYDKINGVWNLSSDQGNLGTFFITNVRIVWHANMNDSFNVSIPYLQIRSIKIRDSKFGLALVIESSQQSGGYVLGFKIDPVEKLQESVKEINSLHKVYSASPIFGVDYEMEEKPQPLEALTVEQIQDDVEIDSDGHTDAFVAYFADGNKQQDREPVFSEELGLAIEKLKDGFTLQGLWEVMS [K141E] | with no effect
MSVLDALWEDRDVRFDLSAQQMKTRPGEVLIDCLDSIEDTKGNNGDRGRLLVTNLRILWHSLALSRVNVSVGYNCILNITTRTANSKLRGQTEALYILTKCNSTRFEFIFTNLVPGSPRLFTSVMAVHRAYETSKMYRDFKLRSALIQNKQLRLLPQEHVYDKINGVWNLSSDQGNLGTFFITNVRIVWHANMNDSFNVSIPYLQIRSIKIRDSKFGLALVIESSQQSGGYVLGFKIDPVEKLQESVKEINSLHKVYSASPIFGVDYEMEEKPQPLEALTVEQIQDDVEIDSDGHTDAFVAYFADGNKQQDREPVFSEELGEAIEKLKDGFTLQGLWEVMS [L322E] | with no effect
MSVLDALWEDRDVRFDLSAQQMKTRPGEVLIDCLDSIEDTKGNNGDRGRLLVTNLRILWHSLALSRVNVSVGYNCILNITTRTANSKLRGQTEALYILTKCNSTRFEFIFTNLVPGSPRLFTSVMAVHRAYETSKMYRDFKLRSALIQNKQLRLLPQEHVYDKINGEWNLSSDQGNLGTFFITNVRIVWHANMNDSFNVSIPYLQIRSIKIRDSKFGLALVIESSQQSGGYVLGFKIDPVEKLQESVKEINSLHKVYSASPIFGVDYEMEEKPQPLEALTVEQIQDDVEIDSDGHTDAFVAYFADGNKQQDREPVFSEELGLAIEKLKDGFTLQGLWEVMS [V167E] | with no effect
MSVLDALWEDRDVRFDKSAQQMKTRPGEVLIDCLDSIEDTKGNNGDRGRLLVTNLRILWHSLALSRVNVSVGYNCILNITTRTANSKLRGQTEALYILTKCNSTRFEFIFTNLVPGSPRLFTSVMAVHRAYETSKMYRDFKLRSALIQNKQLRLLPQEHVYDKINGVWNLSSDQGNLGTFFITNVRIVWHANMNDSFNVSIPYLQIRSIKIRDSKFGLALVIESSQQSGGYVLGFKIDPVEKLQESVKEINSLHKVYSASPIFGVDYEMEEKPQPLEALTVEQIQDDVEIDSDGHTDAFVAYFADGNKQQDREPVFSEELGLAIEKLKDGFTLQGLWEVMS [L17K] | disrupting interaction strength
